From patent publication US20160243213A9

Key:
[1] = target: HPV-16 E7 wild type (E7WT) expressed by RMA-E7 transfectants (HPV-16) (UniProt P03129)
[2] = target: HPV-16 E7 wild type (E7WT) expressed by RMA-E7 transfectants (HPV-16) (UniProt P03129); remark: listed apart in the source

| Substance | 51Cr-release assay (after 1st in vitro restimulation), Specific Lysis (%) [1] [%] | 51Cr-release assay (after 1st in vitro restimulation), specific lysis [2] [%] |
| --- | --- | --- |
| in vitro restimulated spleen cells of C57BL/6 mice inoculated with RPBLAs containing RX3-E7SH (cells without a defined receptor) | 33 |  |
| in vitro restimulated spleen cells of C57BL/6 mice inoculated with RPBLAs containing RX3-E7SH and incomplete Freund's adjuvant (cells without a defined receptor) | 29 |  |
| in vitro restimulated spleen cells of C57BL/6 mice inoculated with RPBLAs containing RX3-Gfp (cells without a defined receptor) |  | 12 |
| in vitro restimulated spleen cells of C57BL/6 mice inoculated with the DNA vaccine pTHamp-E7SH (cells without a defined receptor) |  | 26 |
| in vitro restimulated spleen cells of C57BL/6 mice inoculated with the empty plasmid pTHamp (cells without a defined receptor) | 8 |  |
